# Test results published in US6656907B1, “Method of treating gastric ulcer by administration of epidermal growth factor” (University Technologies International Inc., priority 1995, dated 2003).
# Legend:
# RDEC-E. coli = RDEC-E. coli intestinal infection in rabbits, oral EGF; format: in vivo, New Zealand White rabbits
# Method: Twenty-eight New Zealand White rabbits (6 wk-old) were studied in 3 groups: 1) Controls (Con, n=9), 2) Infected with 1×10^7 RDEC-E. coli (I, n=10), and 3) Infected-treated with 60 μg oral EGF daily for 10 days, starting 3 days prior to infection (I-EGF, n=9). Animals were assessed daily for weight gain, rectal passage of E. coli, and presence of diarrhea. Seven days post-infection, animals were killed and mucosa obtained from the jejunum (JEJ), ileum (ILE), and proximal colon (PROX) for quantitation of E. coli, and from the jejunum for mucosal enzyme assays.
# E. coli = E. coli translocation across confluent CaCo2 monolayers on Transwell membranes; format: cell-based, human
# Method: (§1) Two×10^8 human pathogenic Salmonella typhimurium or E. coli were added to the apical surface of confluent human CaCo2 monolayers grown on Transwell membranes (porosity 3.0 μm). Monolayers received apical EGF (100 μM) or PBS 15 min prior to infection. Each hour post infection (0-7 h), medium under the membrane was replaced and bacterial transepithelial migration rate (CFU/h) was calculated.
# [1] = test system: intestinal brush border membrane nutrient absorption; assay: Nutrient uptake into brush border membrane vesicles after jejunal loop treatment; format: in vivo, New Zealand White rabbits
# Method: Subsequent experiments examined the effects of EGF and an inhibitor of the EGF receptor (tyrphostin 51) on intestinal brush border membrane nutrient absorption. Tyrphostin 51is a specific inhibitor of tyrosine kinase, which is a critical element of the EGF intracellular signalling cascade. Studies were performed in New Zealand White rabbits (700-1000 g; approximately 8 weeks of age). Two 10 cm blind jejunal loops separated by a 1 cm segment were tied off starting 5 cm distal to the ligament of Treitz. In separate experiments either EGF (60 ng/ml), EGF+tyrphostin (10 μM), or tyrphostin (10 μM) alone in 1.5 ml of saline vehicle was administered to one of the loops. The other loop received vehicle alone and served as a paired control. After one hour, the loops were removed and the mucosa scraped for preparation of brush border membrane vesicles. Nutrient (D-glucose and L-proline) uptake into brush border membrane vesicles was determined by established techniques. Luminal EGF stimulated a significant increase (p<0.001) in brush border membrane glucose (EGF 16.1±1.0 vs CONTROL 11.5±0.9 nmol/min/mg protein; n=5) and proline (EGF 3.8±0.5 vs CONTROL 2.6±0.3 nmol/min/mg protein; n=5) transport compared to controls. […] Subsequently, a further series of experiments examined the effect of tyrphostin alone on brush border glucose transport. […] Thus, EGF treatment increases nutrient absorption and promotes weight gain. Conversely, tyrphostin treatment may promote a decrease in weight gain or weight loss and therefore may be useful in the treatment of obesity. Tyrphostin treatment may also reduce the intestinal uptake of toxic or adverse substances.
# [2] = Stability of lyophilized EGF in drinking water; format: physicochemical; conditions: lyophilized EGF added to drinking water
# Salmonella typhimurium = Salmonella typhimurium translocation across confluent CaCo2 monolayers on Transwell membranes; format: cell-based, human; conditions: apical EGF 100 μM 15 min prior to infection
# Method: as §1
# [3] = Weight gain in healthy rabbits given daily oral EGF; format: in vivo, New Zealand white rabbits
# Method: EGF was tested for its potential benefits on weight gain. One group of New Zealand white rabbits (6 week old, 500-700 g) received daily oral doses of recombinant human EGF (100 μg/kg body weight) and control animals were given saline only. […] Given the linear aspect of both curves, continued feeding with EGF is likely to produce a steadily increasing. effect on weight gain.
# [4] = jejunum mucosa, 7 days after inoculation
molecule,measurement,setting,value
"epidermal growth factor (protein, UniProt P01133 23-1207, looked up, Pro-epidermal growth factor) Pro-epidermal growth factor: PQHWSCPEGTLAGNGNSTCVGPAPFLIFSHGNSIFRIDTEGTNYEQLVVDAGVSVIMDFHYNEKRIYWVDLERQLLQRVFLNGSRQERVCNIEKNVSGMAINWINEEVIWSNQQEGIITVTDMKGNNSHILLSALKYPANVAVDPVERFIFWSSEVAGSLYRADLDGVGVKALLETSEKITAVSLDVLDKRLFWIQYNREGSNSLICSCDYDGGSVHISKHPTQHNLFAMSLFGDRIFYSTWKMKTIWIANKHTGKDMVRINLHSSFVPLGELKVVHPLAQPKAEDDTWEPEQKLCKLRKGNCSSTVCGQDLQSHLCMCAEGYALSRDRKYCEDVNECAFWNHGCTLGCKNTPGSYYCTCPVGFVLLPDGKRCHQLVSCPRNVSECSHDCVLTSEGPLCFCPEGSVLERDGKTCSGCSSPDNGGCSQLCVPLSPVSWECDCFPGYDLQLDEKSCAASGPQPFLLFANSQDIRHMHFDGTDYGTLLSQQMGMVYALDHDPVENKIYFAHTALKWIERANMDGSQRERLIEEGVDVPEGLAVDWIGRRFYWTDRGKSLIGRSDLNGKRSKIITKENISQPRGIAVHPMAKRLFWTDTGINPRIESSSLQGLGRLVIASSDLIWPSGITIDFLTDKLYWCDAKQSVIEMANLDGSKRRRLTQNDVGHPFAVAVFEDYVWFSDWAMPSVMRVNKRTGKDRVRLQGSMLKPSSLVVVHPLAKPGADPCLYQNGGCEHICKKRLGTAWCSCREGFMKASDGKTCLALDGHQLLAGGEVDLKNQVTPLDILSKTRVSEDNITESQHMLVAEIMVSDQDDCAPVGCSMYARCISEGEDATCQCLKGFAGDGKLCSDIDECEMGVPVCPPASSKCINTEGGYVCRCSEGYQGDGIHCLDIDECQLGEHSCGENASCTNTEGGYTCMCAGRLSEPGLICPDSTPPPHLREDDHHYSVRNSDSECPLSHDGYCLHDGVCMYIEALDKYACNCVVGYIGERCQYRDLKWWELRHAGHGQQQKVIVVAVCVVVLVMLLLLSLWGAHYYRTQKLLSKNPKNPYEESSRDVRSRRPADTEDGMSSCPQPWFVVIKEHQDLKNGGQPVAGEDGQAADGSMQPTSWRQEPQLCGMGTEQGCWIPVSSDKGSCPQVMERSFHMPSYGTQTLEGGVEKPHSLLSANPLWQQRALDPPHQMELTQ",stool cultures for E. coli,RDEC-E. coli; I-EGF group,positive
same,animals with diarrhea,"RDEC-E. coli; I-EGF group, 4 animals in infected group",none
same,effect on infection-induced reduced weight gain,RDEC-E. coli; I-EGF vs I,prevented
same,effect on jejunum maltase and sucrase activities,RDEC-E. coli; I-EGF vs I,prevented the decrease
same,"reduction of E. coli colonization in the jejunum, ileum and proximal colon",RDEC-E. coli; compared to infected (I),> 85%
same,E. Coli ILE,"RDEC-E. coli; ileum mucosa, 7 days after inoculation",4.88 ± 0.2 Log10 CFU/cm
same,"% bacterial clearance in infected + EGF group, ILE","RDEC-E. coli; ileum, vs infected",95%
same,Cumulative Weight Gain,"RDEC-E. coli; infected rabbits, 60 μg oral EGF daily for 10 days, 7 days after inoculation",316 ± 16 grams
same,E. Coli JEJ,RDEC-E. coli; [4],3.10 ± 0.4 Log10 CFU/cm
same,MALT (jejunum maltase activity),RDEC-E. coli; [4],436 ± 48 u/g
same,SUC (jejunum sucrase activity),RDEC-E. coli; [4],89 ± 19 u/g
same,"% bacterial clearance in infected + EGF group, JEJ","RDEC-E. coli; jejunum, vs infected",92%
same,E. Coli PROX,"RDEC-E. coli; proximal colon mucosa, 7 days after inoculation",4.09 ± 0.2 Log10 CFU/cm
same,"% bacterial clearance in infected + EGF group, PROX","RDEC-E. coli; proximal colon, vs infected",85%
same,microorganisms adhering to the epithelial surface (scanning electron microscopy),"E. coli; Transwell membrane studies, bacterium not specified",significantly higher numbers of microorganisms adhering to the epithelial surface of untreated monolayers
same,delay of initial E. coli translocation,E. coli; apical EGF 100 μM 15 min prior to infection,1 h
same,inhibition of rate of E. coli invasion (transepithelial migration rate),"E. coli; apical EGF 100 μM, after the initial delay",> 95%
same,brush border membrane proline transport,"[1]; EGF 60 ng/ml luminal, one hour, n=5, control 2.6±0.3",3.8±0.5 nmol/min/mg protein
same,brush border membrane glucose transport,"[1]; EGF 60 ng/ml luminal, one hour, n=5, control 11.5±0.9",16.1±1.0 nmol/min/mg protein
same,glucose absorption in intact tissue,"[1]; luminal EGF, initial experiments",increased
same,stability in drinking water,[2],proven stable
same,translocation of S. typhimurium,Salmonella typhimurium,completely abolished
same,mean cumulative weight gain,"[3]; at 9 days, 100 μg/kg body weight daily oral, n=10, controls 394±16 g",422 ± 27 g
same,slope of the linear regression curve of weight gain,"[3]; vs untreated controls, P 0.002, FIG. 1",significantly greater
